One data set has as its target PU.1 ETS (ETSPU.1) (mouse, UniProt P17433 165-272). The experiment in a line: EMSA; EMSA: 20 mM HEPES pH 7.3, 150 mM NaCl, 0.5 mM TCEP, 30 min room temperature, 0.5 uM nucleosome or DNA; FRET: 20 mM HEPES pH 7.1, 100 mM NaCl, 0.5 mM TCEP, 200 n. (A gel shift assay detects complexes by their altered migration in electrophoresis.)
In another data set the target is PU.1 full-length (mouse, UniProt P17433 1-272). The experiment in a line: EMSA; EMSA: 20 mM HEPES pH 7.3, 150 mM NaCl, 0.5 mM TCEP, 30 min room temperature, 0.5 uM nucleosome or DNA; FRET: 20 mM HEPES pH 7.1, 100 mM NaCl, 0.5 mM TCEP, 200 nM nucleosome. The following applies: protein: recombinant; tags: N-terminal His.
In a further data set the target is PU.1 ETS Q218H (mouse, UniProt P17433 165-272, Q218H). Kind of data set: EMSA; little effect of Q218H; EMSA: 20 mM HEPES pH 7.3, 150 mM NaCl, 0.5 mM TCEP, 30 min room temperature, 0.5 uM nucleosome or DNA; FRET: 20 mM HEPES pH 7.1, 100 mM NaCl, 0.5 mM TCEP, 200 n.
The target of the next data set is MBP-DBD C/EBPalpha (UniProt P53566 214-359). The experiment in a line: EMSA; 5 uM DNA; MBP fusion assumed; EMSA: 20 mM HEPES pH 7.3, 150 mM NaCl, 0.5 mM TCEP, 30 min room temperature, 0.5 uM nucleosome or DNA; FRET: 20 mM HEPES pH 7.1, 100 mM NaCl, 0.5 mM TCEP, 200 nM nucleosome. The following applies: protein: recombinant; tags: N-terminal MBP; chain copies: 2; blunt.

Consider two molecules from article doi:10.1101/2023.08.25.554718, “Structural mechanism of synergistic targeting of the CX3CR1 nucleosome by PU.1 and C/EBPα”.

Sequence of MBP-DBD C/EBPalpha (P53566 214-359): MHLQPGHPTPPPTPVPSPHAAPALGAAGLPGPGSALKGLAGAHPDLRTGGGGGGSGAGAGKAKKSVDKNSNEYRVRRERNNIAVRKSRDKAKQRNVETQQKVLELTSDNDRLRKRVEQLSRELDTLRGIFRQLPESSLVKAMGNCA

B1: 162 bp CX3CR1 DNA (dsDNA)
DNA 1: TAGGTGCAGGGCCTCTCGGCTGCTGATCTTCAGCTGGTTGCTGAGAGTTGCAGCATTGCTGAGTCTTAGCAATGGATACTTCCCGATTCCCCTCACAAAAATAGGTCAGTCTGTCTGGCTAGTTCTGTACTTGCAGACACAGGGCATGTGGGGTTCCTATTT
DNA 2: AAATAGGAACCCCACATGCCCTGTGTCTGCAAGTACAGAACTAGCCAGACAGACTGACCTATTTTTGTGAGGGGAATCGGGAAGTATCCATTGCTAAGACTCAGCAATGCTGCAACTCTCAGCAACCAGCTGAAGATCAGCAGCCGAGAGGCCCTGCACCTA
Consider B1, for which the binding result with PU.1 ETS (ETSPU.1), with PU.1 full-length and in the data set with PU.1 ETS Q218H was “binds” in each case.

B2: 20 bp C/EBPalpha site DNA (dsDNA)
DNA 1: ATCTTCAGCTGGTTGCTGAG
DNA 2: CTCAGCAACCAGCTGAAGAT
Regarding B2, in the data set with MBP-DBD C/EBPalpha, the binding result is given as “binds”.
